Measurements: patent US20250152742A1, “COMPOSITIONS AND METHODS FOR NEUROLOGICAL DISEASES” (Trames Bio, Inc., priority 2022, published 2025)

Test system: engineered chimeric receptor SEQ ID NO: 33 and its mutants (human α7-nAChR ligand binding domain / human GlyRα1 ion pore domain) in Lenti-X 293T cells
Assay: YFP fluorescence quenching anion reporter plate reader assay (percent quench, EC50)
Format: cell-based
Conditions: for YFP fluorescence quenching using CNL001 (percent quench): receptor named in row; for YFP fluorescence quenching using Facinicline, 30 nM fac: ligand Facinicline 30 nM; for YFP fluorescence quenching using Facinicline, 300 nM fac: ligand Facinicline 300 nM; for YFP fluorescence quenching using Facinicline, 30 uM fac: ligand Facinicline 30 uM; for YFP fluorescence quenching using TC-6987, 1 uM tc6987: ligand TC-6987 1 uM; for YFP fluorescence quenching using TC-6987, 10 uM tc6987: ligand TC-6987 10 uM; for YFP fluorescence quenching using TC-6987, 500 uM tc6987: ligand TC-6987 500 uM; for YFP fluorescence quenching using Varenicline, 3 nM var: ligand Varenicline 3 nM; for YFP fluorescence quenching using Varenicline, 30 nM var: ligand Varenicline 30 nM; for YFP fluorescence quenching using Varenicline, 300 nM var: ligand Varenicline 300 nM; for YFP fluorescence quenching using Varenicline, 500 nM var: ligand Varenicline 500 nM; for YFP fluorescence quenching using Varenicline, 1 uM var: ligand Varenicline 1 uM
Outline: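 Lenti-X 293T cells co-expressing an anion-quenchable YFP were transiently transfected with receptor DNA, then ligand was added in NaI-substituted buffer (pH 7.2) after 30 min at 37 °C. Fluorescence was read about 2 min; percent quench = mean of last 10 s over 15 s pre-ligand baseline.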

[1] = 1 nM CNL001, first column so headed
[2] = 1 nM CNL001, second column so headed
[3] = 3 nM brd (TC-5619/Bradanicline)
[4] = 10 nM CNL001, first column so headed
[5] = 10 nM CNL001, second column so headed
[6] = 30 nM brd (TC-5619/Bradanicline)
[7] = 50 nM CNL001, first column so headed
[8] = 50 nM CNL001, second column so headed
[9] = 100 nM CNL001, first column so headed
[10] = 100 nM CNL001, second column so headed
[11] = 300 nM brd (TC-5619/Bradanicline)
[12] = 1 uM CNL001, first column so headed
[13] = 1 uM CNL001, second column so headed

B1: CODA952: engineered receptor: Y140I in SEQ ID NO: 33 (protein)
chain: MRCSPGGVWLALAASLLHVSLQGEFQRKLYKELVKNYNPLERPVANDSQPLTVYFSLSLLQIMDVDEKNQVLTTNIWLQMSWTDHYLQWNVSEYPGVKTVRFPDGQIWKPDILLYNSADERFDATFHTNVLVNSSGHCQILPPGIFKSSCPMDLKNFPMDVQTCKLKFGSWSYGGWSLDLQMQEADISGYIPNGEWDLVGIPGKRSERFYECCKEPYPDVTFTVTMRRRMGYYLIQMYIPSLLIVILSWISFWINMDAAPARVGLGITTVLTMTTQSSGSRASLPKVSYVKAIDIWMAVCLLFVFSALLEYAAVNFVSRQHKELLRFRRKRRHHKSPMLNLFQEDEAGEGRFNFSAYGMGPACLQAKDGISVKGANNSNTTNPPPAPSKSPEEMRKLFIQRAKKIDKISRIGFPMAFLIFNMFYWIIYKIVRREDVHNQ
modifications: synthetic sequence of chimeric LGIC
[1]
  YFP fluorescence quenching using CNL001 (percent quench): 0.368%
[2]
  YFP fluorescence quenching using CNL001 (percent quench): −1.976%
[3]
  YFP fluorescence quenching using TC-5619/Bradanicline (percent quench): −2.45%
[4]
  YFP fluorescence quenching using CNL001 (percent quench): −3.923%
[5]
  YFP fluorescence quenching using CNL001 (percent quench): 4.348%
30 nM TC-6683
  YFP fluorescence quenching using TC-6683 (percent quench): −27.7%
[6]
  YFP fluorescence quenching using TC-5619/Bradanicline (percent quench): 66.97%
[7]
  YFP fluorescence quenching using CNL001 (percent quench): 74.107%
[8]
  YFP fluorescence quenching using CNL001 (percent quench): 75.866%
50 nM abt (ABT-126)
  YFP fluorescence quenching using ABT-126 (percent quench): −12.34%
[9]
  YFP fluorescence quenching using CNL001 (percent quench): 80.323%
[10]
  YFP fluorescence quenching using CNL001 (percent quench): 81.996%
100 nM CNL002
  YFP fluorescence quenching (percent quench): 32.58%
100 nM abt (ABT-126)
  YFP fluorescence quenching using ABT-126 (percent quench): −11.57%
100 nM azd0328
  YFP fluorescence quenching using AZD-0328 (percent quench): −12.96%
300 nM TC-6683
  YFP fluorescence quenching using TC-6683 (percent quench): −26.87%
300 nM abt (ABT-126)
  YFP fluorescence quenching using ABT-126 (percent quench): −5.21%
300 nM azd0328
  YFP fluorescence quenching using AZD-0328 (percent quench): −13.21%
[11]
  YFP fluorescence quenching using TC-5619/Bradanicline (percent quench): 78.48%
[12]
  YFP fluorescence quenching using CNL001 (percent quench): 83.489%
[13]
  YFP fluorescence quenching using CNL001 (percent quench): 82.208%
1 uM CNL002
  YFP fluorescence quenching (percent quench): 69.08%
1 uM abt (ABT-126)
  YFP fluorescence quenching using ABT-126 (percent quench): 3.93%
3 uM TC-6683
  YFP fluorescence quenching using TC-6683 (percent quench): −31.2%
10 uM ach (acetylcholine)
  YFP fluorescence quenching (percent quench): −1.97%
30 uM CNL002
  YFP fluorescence quenching (percent quench): 73.28%
30 uM TC-6683
  YFP fluorescence quenching using TC-6683 (percent quench): −33.12%
30 uM azd0328
  YFP fluorescence quenching using AZD-0328 (percent quench): 68.5%
100 uM TC-6683
  YFP fluorescence quenching using TC-6683 (percent quench): −24.67%
100 uM ach (acetylcholine)
  YFP fluorescence quenching (percent quench): 2.79%
1 mM ach (acetylcholine)
  YFP fluorescence quenching (percent quench): 58.81%
3 mM ach (acetylcholine)
  YFP fluorescence quenching (percent quench): 66.9%
  YFP fluorescence quenching using Facinicline, 30 nM fac: −8.83
  YFP fluorescence quenching using Facinicline, 300 nM fac: 51.6
  YFP fluorescence quenching using Facinicline, 30 uM fac: 71.01
  YFP fluorescence quenching using TC-6987, 1 uM tc6987: 6.03
  YFP fluorescence quenching using TC-6987, 10 uM tc6987: 2.25
  YFP fluorescence quenching using TC-6987, 500 uM tc6987: −0.24
First column
  YFP fluorescence quenching using Varenicline, 3 nM var: −22.522
  YFP fluorescence quenching using Varenicline, 30 nM var: −15.306
  YFP fluorescence quenching using Varenicline, 300 nM var: −14.671
  YFP fluorescence quenching using Varenicline, 500 nM var: −16.713
  YFP fluorescence quenching using Varenicline, 1 uM var: −15.847
Second column
  YFP fluorescence quenching using Varenicline, 3 nM var: −18.173
  YFP fluorescence quenching using Varenicline, 30 nM var: −12.832
  YFP fluorescence quenching using Varenicline, 300 nM var: −17.016
  YFP fluorescence quenching using Varenicline, 500 nM var: −18.893
  YFP fluorescence quenching using Varenicline, 1 uM var: −16.236

B2: CODA965: engineered receptor: Y140C in SEQ ID NO: 33 (protein)
chain: MRCSPGGVWLALAASLLHVSLQGEFQRKLYKELVKNYNPLERPVANDSQPLTVYFSLSLLQIMDVDEKNQVLTTNIWLQMSWTDHYLQWNVSEYPGVKTVRFPDGQIWKPDILLYNSADERFDATFHTNVLVNSSGHCQCLPPGIFKSSCPMDLKNFPMDVQTCKLKFGSWSYGGWSLDLQMQEADISGYIPNGEWDLVGIPGKRSERFYECCKEPYPDVTFTVTMRRRMGYYLIQMYIPSLLIVILSWISFWINMDAAPARVGLGITTVLTMTTQSSGSRASLPKVSYVKAIDIWMAVCLLFVFSALLEYAAVNFVSRQHKELLRFRRKRRHHKSPMLNLFQEDEAGEGRFNFSAYGMGPACLQAKDGISVKGANNSNTTNPPPAPSKSPEEMRKLFIQRAKKIDKISRIGFPMAFLIFNMFYWIIYKIVRREDVHNQ
modifications: synthetic sequence of chimeric LGIC
[1]
  YFP fluorescence quenching using CNL001 (percent quench): −12.765%
[2]
  YFP fluorescence quenching using CNL001 (percent quench): −12.608%
[3]
  YFP fluorescence quenching using TC-5619/Bradanicline (percent quench): −18.49%
[4]
  YFP fluorescence quenching using CNL001 (percent quench): 68.134%
[5]
  YFP fluorescence quenching using CNL001 (percent quench): 71.394%
30 nM TC-6683
  YFP fluorescence quenching using TC-6683 (percent quench): −8.21%
[6]
  YFP fluorescence quenching using TC-5619/Bradanicline (percent quench): 22.66%
[7]
  YFP fluorescence quenching using CNL001 (percent quench): 80.298%
[8]
  YFP fluorescence quenching using CNL001 (percent quench): 82.159%
50 nM abt (ABT-126)
  YFP fluorescence quenching using ABT-126 (percent quench): −10.75%
[9]
  YFP fluorescence quenching using CNL001 (percent quench): 82.404%
[10]
  YFP fluorescence quenching using CNL001 (percent quench): 82.14%
100 nM CNL002
  YFP fluorescence quenching (percent quench): 43.24%
100 nM abt (ABT-126)
  YFP fluorescence quenching using ABT-126 (percent quench): −4.11%
100 nM azd0328
  YFP fluorescence quenching using AZD-0328 (percent quench): −16.69%
300 nM TC-6683
  YFP fluorescence quenching using TC-6683 (percent quench): −16.37%
300 nM abt (ABT-126)
  YFP fluorescence quenching using ABT-126 (percent quench): 18.93%
300 nM azd0328
  YFP fluorescence quenching using AZD-0328 (percent quench): 1.3%
[11]
  YFP fluorescence quenching using TC-5619/Bradanicline (percent quench): 38.02%
[12]
  YFP fluorescence quenching using CNL001 (percent quench): 82.34%
[13]
  YFP fluorescence quenching using CNL001 (percent quench): 80.649%
1 uM CNL002
  YFP fluorescence quenching (percent quench): 42.72%
1 uM abt (ABT-126)
  YFP fluorescence quenching using ABT-126 (percent quench): 52.64%
3 uM TC-6683
  YFP fluorescence quenching using TC-6683 (percent quench): −19.48%
10 uM ach (acetylcholine)
  YFP fluorescence quenching (percent quench): −21.71%
30 uM CNL002
  YFP fluorescence quenching (percent quench): 51.43%
30 uM TC-6683
  YFP fluorescence quenching using TC-6683 (percent quench): −24.32%
30 uM azd0328
  YFP fluorescence quenching using AZD-0328 (percent quench): 21.78%
100 uM TC-6683
  YFP fluorescence quenching using TC-6683 (percent quench): −24.99%
100 uM ach (acetylcholine)
  YFP fluorescence quenching (percent quench): 3.49%
1 mM ach (acetylcholine)
  YFP fluorescence quenching (percent quench): 63.34%
3 mM ach (acetylcholine)
  YFP fluorescence quenching (percent quench): 51.92%
  YFP fluorescence quenching using Facinicline, 30 nM fac: −12.29
  YFP fluorescence quenching using Facinicline, 300 nM fac: 20.11
  YFP fluorescence quenching using Facinicline, 30 uM fac: 37.62
  YFP fluorescence quenching using TC-6987, 1 uM tc6987: 2.73
  YFP fluorescence quenching using TC-6987, 10 uM tc6987: 30.37
  YFP fluorescence quenching using TC-6987, 500 uM tc6987: 33.07
First column
  YFP fluorescence quenching using Varenicline, 3 nM var: −17.716
  YFP fluorescence quenching using Varenicline, 30 nM var: −14.993
  YFP fluorescence quenching using Varenicline, 300 nM var: −11.731
  YFP fluorescence quenching using Varenicline, 500 nM var: −12.518
  YFP fluorescence quenching using Varenicline, 1 uM var: −13.385
Second column
  YFP fluorescence quenching using Varenicline, 3 nM var: −23.019
  YFP fluorescence quenching using Varenicline, 30 nM var: −12.182
  YFP fluorescence quenching using Varenicline, 300 nM var: −10.13
  YFP fluorescence quenching using Varenicline, 500 nM var: −15.043
  YFP fluorescence quenching using Varenicline, 1 uM var: −17.022
